The values that follow come from the domain aggregation screens of Martell et al. (2025).

A value given as a limit tells only on which side of the number the result lay.

The nature of this series: soluble fraction after stress (log2 fold change); higher = more stays soluble; pooled small domains, quantitative proteomics. Conditions: stress: 50 degC. In a few lines:
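The measure of aggregation propensity here is the base-two logarithm of the fold change in the soluble amount of each protein after stress. A higher value means more of that protein stays in solution. Stress was applied at 50°C to pooled libraries of small protein domains, read out by high-throughput quantitative proteomics.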
Take “HMVSATKAFVNGGNIVVSSPKATRVAVYNVAGQKVAEQAFAGKATIKASDFAKGIYVLKFNDNTVLKLT”: the “soluble fraction (log2)” value is -0.518.
The figure for “HMFAATGVVNAPSGLVLRETASKGGNPLATVPDKAQVEIVEEDGEWYKVKVNEQTGYLFAEFVNKTE” is 0.0336; for “HMISRDPYDAGAIKRHFSASGLFSSKELAHYLGKSVSTAKNVLSDLQQQGIVEMVGQGPATKYRFI” it is 0.343.
Regarding “HMFTFEDMDKFESLLTTGLTDVQRRIYSLVTHDGKEYDLIAETLGISVEAVRMHMSRARKKIRENYKKID”, the “soluble fraction (log2)” value was -2.42.
For the sequence “HMFIKVEVPDLTGMTLTEVRKALEEKNLKMGDIRPAGQTSLVAKVINQSPQAKMVVDEYSEVSIQFEE”, the “soluble fraction (log2)” value was -0.217.
With “HMGGRTITVGISENMTVKDIAQMLEEKGLIEDARLFVVQELLSAYHKEIKPGIYDLSTDMTAAQMLEIMS”, the “soluble fraction (log2)” value was -0.464.
With “HMEREQNIEHGRAIVERELKRLGLSDVYTIADIATALRHDDVDQFLAKIGFGDIQSTQIGGAIAALQQR”, the “soluble fraction (log2)” value was -0.0664.
Turning to “HMKLVESALSILEEAVDRDFHGNLGDAARYFDIPYQTIYSWLKSRKRVPSLRALEPVLEKLGVSFTT”, the “soluble fraction (log2)” value is -0.896.
Consider “HMGWEPTPVLVAARDISGGTVLDQDMLRVEAIPSRLVTPSIVRSDLLASVQDAKLLLPMKQGDLLNFNMLQ”, for which the “soluble fraction (log2)” value was -0.064.
For “HMSSQLETTFATLIGKRVSIRLHDPEGGFRDILGHLESPYSLRNRHGNLIEFAHDQIFLWREVI”, the “soluble fraction (log2)” value is -0.951.
As for “HMLLLASTPAEQTIIQLLAEGWRDGDQLQQRSHLSAADFSTALTMLEVNGSIKPLGANHWALTH”, the “soluble fraction (log2)” value was -0.919.
Consider “HMSFMPDPSIHDAITYTVRSGDYLGKISTTFGVKVSDLQKWNSIKSNIIYPGQKLTVWVSSNKRESLQ”, for which the “soluble fraction (log2)” value is -1.31.
The result for “HMGVTGYPNPTREHITWDDARRIEVWNAYGVPVADLRFARGVLDVAGWPVGTYVARIDGGRSVRFVVI” reads -0.19; that for “HMRMSRSARLFDLLHILRSHRRAVSGQALAQQLGISIRTLYRDIASLQAQGAKIEGEPGVGYMLKP”, -0.947.
As for “HMSWAAQVVDKMTNDQLIKSLNEIVNTGKQLGLDITVEQNGDKNFIMTVKDSKGNVQLVTPIG”, the “soluble fraction (log2)” value is -0.0133.
Take “HMAPLEPLTDRETEMLVRLANGASNKVMARESFVSENTIKFHLKNIYAKLGVTSRLQAIAAARNQGLI”: the “soluble fraction (log2)” value was -0.891.
As for “HMSHQIIIVAVELDPSTERIVYYLSKNGISINVLFFKVFQHGDEQFLSRVWLIDPSETQTNAALA”, the “soluble fraction (log2)” value is -0.466.
As to “HMTTGLETYPGKIAVVSDDFIDGEGRVQLDGALWRAKTKDHQQLKQGDHVTIVNVKGLTLTVMPDD”, the “soluble fraction (log2)” value turned out to be 0.23.
For the sequence “HMRRSLIGPTVRERRRALGITQSRLAAEVGISASYLNLIEGDKRNIGGALLQRIAGALGLALD”, the “soluble fraction (log2)” value is -2.74.
For the sequence “HMNNNIFVYPNPSINYINIDSDEEIWKLEIIQMSGEKINILPFSKRIDISFLSKGLYILNFNNYYIKFIK”, the “soluble fraction (log2)” value was -0.187.
The figure for “HMSLSASELDQLRMMTKVSHMYHTRGMVQIDIARSLGLSQARVSRLLSAAEDANIVRTVVVA” is -0.306; for “HMFTKYSPDFKLSVILDMRKNNLGYGEVVRKYWNLDSYKESDRHRSQVRLWERIFLEEGVEGFM” it is -4.64.
Consider “HMDKLFNRQTLGGVELTQKQIEDLNAGKAIFVEGMQRKDGEVFSSYVKLDEATGRPSYTRYNPDSP”, for which the “soluble fraction (log2)” value came out at 0.441.
The figure for “HMDGIGLRVRMIREGVGLTQKQLAEHLGMQRTALVQVEAGSRKLSASELIGVARFFNITVEQFLDPEK” is -3.37; for “HMDPSKLVEVQEPVSMKALSEGLGIKVTELIATFAFKLKIGGKNINSMLSNDEVELVALDLERNIKVV” it is 0.164; for “HMGMMTLGQRIAQYRKAMGISQEELGGRLGVSRQAVSKWETDAAAPDMENLLALAREFGVSVAELTETP” it is -0.0446.
With “HMPSDLQATLRAVQGMLQGVEGVDARLAGQRILLEGDSADARARERAAAIAGIFPGVVIDFVG”, the “soluble fraction (log2)” value is -0.155.
Turning to “HMHMIDDYLARIGQLIRDARQHRGWTQVQLAEALGTSQSAVNRIERGNQNISLEMIARIGEALGSEIVSLG”, the “soluble fraction (log2)” value was -1.62.
As for “HMISASDLQTYLKGMDYPARKEDLIVHAQRNNAPESVIAAIRQFSDRTYQSAADVSEEFGKI”, the “soluble fraction (log2)” value was determined as 0.19.
Take “HMGSREVPFSDFISKVESGSVLEVVLRGRQVEGLTDANERFQTQIPNYPALFEILERNQVRTRVEPT”: the “soluble fraction (log2)” value turned out to be 0.0852.
The figure for “HMFAVPAPEVDDILSEKKVDVLLLGPQVRYLLEQFTEKLKDKNIPIGVIPMVDYGMMNGSKVLALAEELIG” is -0.0132.
For “HMVSSEGLASGIERMLVEFGLETDKGRRFAMWSLLYMLGSAPDLDVAFKDPRDREAARTFMDLLDQANA”, the “soluble fraction (log2)” value is -0.69.
Take “HMILEEIIGKNIARYREAAGLTQATLAEKIGISTAFVSRVERGQKKMKVETLYATAKVLNVSVDALLS”: the “soluble fraction (log2)” value is -2.1.
Regarding “HMKSIPKIKWNSTLENIKNFEYQDNFFESKEMYDLLVSFYKYGFVIIKNIPTNNNFIVKFANSIGS”, the “soluble fraction (log2)” value was -0.021.
The result for “HMVVGYRYVTNVANAVNFRQKPSASSTIITTIPYGTRIGYVEDANSEYARVKYDNMYGYVAKFYLSNYSPP” reads -3.27.
In the case of “HMNTGFPIILETSDAANLTVGAPIMYRGVEVGKIRNMELNSLGDRVLIHILIGHKYQHLVRQNSEFWFSS”, the “soluble fraction (log2)” value was -4.54.
For “HMDTPMYMAIIEEVRFQIANEILKEGEQLPSIRNLAKTLKVSVITVKRAYKELEEAGYITTIPAKGSKVS”, the “soluble fraction (log2)” value was -1.43.
Consider “HMSSRNLIIFYDSPQAENALLATAERYGAILLHHYRNLHGIAVAIPADKDMAQAVTYFSRQPGVRQV”, for which the “soluble fraction (log2)” value is -0.803.
The result for “HMDDIVPHSTKNHIIKTFLSLMNSLDIITDKNKKSLNQNVHIIFNKFNFSKKEANLFIGVLNRIQKALK” reads 0.552.
For the sequence “HMDDFITLVIHTPAHAQNLRNILESHGMEVRLEDFVSFKSPVAVAQRVKIRPKDLPLALKIIESGE”, the “soluble fraction (log2)” value is 0.227.
Regarding “HMSSEITYDKFIEMVDKDQVKEVTLQSGVLTVVPKIQKSYYQNASYKVNQMEDVDALTKRLEGTGIVFHY”, the “soluble fraction (log2)” value was -0.0487.
The figure for “HMKVFTEDEMLEKIKEYLSTNSYINRRVMETQFGLRQNIALKWLKHFTEIGVLRKEGERNSPIYFLNN” is at least 0.62.
As to “HMANIAVTIPTGSSGDRIADILLQAGLIKDKQDFNQAVIAAGAEGKLRAGYFVIPSNATPAEIISILT”, the “soluble fraction (log2)” value is -0.695.
Regarding “HMSSDLESVIGTHSQEANFALRSWGWIQPDETWKNLRPDQVSQILERANEFMAKAIESFANAQSE”, the “soluble fraction (log2)” value is -0.14.
In the case of “HMENISVESKMKLLLKSLKTRDFISLPELVLKGESKLAISVILVAALELNRKGYIEVVQAEQFGEIYFKNT”, the “soluble fraction (log2)” value is -0.191.
For “HMKTTKDSVFEYIQKELMTNEEYKQGINTNVIAQHFGLQRSNISTILNELVKEDRLEKTNTRPVLYFLPQ”, the “soluble fraction (log2)” value is -0.0929.
The figure for “HMGKVTILSNPVKDALVIMGLHNAETIDVRLFDNTGRLVMQGSQSRMDISSLSPGLYILQVNGKILKVIK” is -2.21.
On to “HMGRFPSLTPVVIDALTAQYREHPGWTVQLHVDNLRVVLAANQTPLPSYPTIRRYLLAQGMRRQTRP”, for which the “soluble fraction (log2)” value is -0.426.
Turning to “HMIPNEKEAARWDALTAEHTAKLNALEGDALDKVGSHEDVSIKRAGVGDAAFREKILSRTHPDDLERALST”, the “soluble fraction (log2)” value came out at 0.0829.
For the sequence “HMGFAPEAAREEVAQLIGQRGRAVTVLRPSGQVEIAGRRFEATVEVGAVDAGDTIVVRGQTAFALLVEKAD”, the “soluble fraction (log2)” value turned out to be 0.0301.
Consider “HMEQTIKKYVNVATLNFRSGPSTSYSIISTLSKGTKVEVISTTNNWSKIIYDGKIGYVSSEYLSKSI”, for which the “soluble fraction (log2)” value is -2.1.
The result for “HMEVGDTYLGKVTRVSSFGAFIEVLPGKEGLMRQNDAGEGGMPEVGDEVMVRVMEVDHLGRINLSGKLDD” reads -0.0268.
Consider “HMGTGSSAERITMLNSILERQIQAMEIQGNPDAPIVNIQKIYTTLQRIVETAGLKDVDQFFMNPLQGQKEM”, for which the “soluble fraction (log2)” value is -0.253.
On to “HMQMLQDPFLNALRKEHVPVSIYLVNGIKLQGQVESFDQYVVLLRNTSVTQMVYKHAISTIVPARAVSL”, for which the “soluble fraction (log2)” value was -0.403.
The result for “HMKNKRERLGIISEILRMQVIGSQEELLDILRAKGYDVTQATLSRDLKVLKVAKTPLSNGAYKYVLPPQ” reads 0.0519; that for “HMFTYDLSERELTIIELVAKGLNNKELADTLFLSEGTIRNYLSTLLNKLDLRDRTQLAIFYYQHL”, -2.62; that for “HMHTGEVVNGKVIDVKEDQIILNVGFKSDGIITRSEYSNDNSLDLRTVVNVGDDMEAKVLKINDGEGQVLL”, -0.185.
As for “HMTPESSLHSGLGKILHDALTAKIQLTNFEAKFLSDMQSKYDLNGSFSWLSSKQQTTLEKILAKYGR”, the “soluble fraction (log2)” value was -0.841.
For “HMTSHYTVLGVKETDTIEMIRTHYRKLILQFHPDKNQHLTEEERKKLEVKVLQIREAYEKIKKEK”, the “soluble fraction (log2)” value is -0.214.
“HMKLARGEFEIMAKFIKEISGISLEQNKTYLIESRLSDLAESEGVKTFSDFFFKAKFNKILKEKIIDAI”: the “soluble fraction (log2)” value is -0.946.
Take “HMKFDVNAAIRAVLNVTVDKGATLERIMKETNLTSDQLVLPIALLMKTERLHFKRSGTHEVYVSVGKAPDK”: the “soluble fraction (log2)” value is -3.02.
For “HMRSGEDESFSAGLLEYPHYTRPAEFEGHRIPDILTSGDHAKVDAWRQEMSEHITRERRPDLWEMYKKK”, the “soluble fraction (log2)” value turned out to be 0.0901.
As to “HMQGEDEILKIHEALEELAQIDARLVRVVEMRYFVGLSNQEIADSLGVTTRTVERDWEKARTFLFNALHP”, the “soluble fraction (log2)” value is -1.4.
For the sequence “HMDAGIVVPDTYNKPLAEAVASLEGEGFRTEKKEGYSDTVAKGNVMSQNPEAGTNAERGSTVTIVISQGPQ”, the “soluble fraction (log2)” value amounted to 0.0495.
In the case of “HMEQIFTELIMDGRVLGENLHRMGVDETWLLRQLRQQGYHSAREVFLAVADANKQVAVYPVS”, the “soluble fraction (log2)” value was -0.308.
Turning to “HMTDLALHIGKTLRELRQRRGWSLDKTAQATGVSKAMLGQIERGESSPTVVTLWRISSGLQASFSEFLPP”, the “soluble fraction (log2)” value was -1.61.
On to “HMKTSTGSAMYLTLDLAEKYAGQAFTLVHKKADGTFEYLYATADVDGKVKFGPVYELSPFMLVKGQL”, for which the “soluble fraction (log2)” value was -0.291.
“HMDLPAEFSKPELETLFKRGKQSGELSLTEVRDALEAAQLPNKKTQTKVLKVLSDNAIHVLMDG”: the “soluble fraction (log2)” value stood at 0.146.
